Measured values from patent publication US20260242450A1.

Columns and labels:
[1] = target: HIV-1 envelope proteins of the panel of 12 global reference pseudovirus strains of HIV-1 ("global panel")
[2] = target: HIV-1 envelope proteins of the panel of 8 pseudoviruses insensitive against neutralization by CD4bs bNAbs (constituents of the 119 multiclade panel)
[3] = target: HIV-1 envelope proteins of the multiclade panel of 119 pseudoviruses
[4] = target: HIV-1 envelope proteins of the panel of 100 clade C HIV-1 pseudoviruses (Subtype C panel)
[5] = target: HIV-1 envelope proteins of the panel of 7 pseudoviruses selected from the "Resistant panel to CD4bs bNAbs"
[6] = target: HIV-1 envelope proteins of the panel of 9 pseudoviruses resistant against CD4bs bNAbs (constituents of the 119 multiclade and Subtype C panels)
[7] = target: HIV-1 envelope proteins of the panel of 185 pseudoviruses generated from virus sequences obtained from the Antibody Mediated Prevention (AMP) trials

B1: 05_C07 (antibody, V domains shown)
VH: HVQLWQSGAEVKKPGASVKISCSAWGFGTRSGYTFRDYRIHWVRQVPRQGFEWMGHLHPAYGAVNYARQFQGRIIMTREVSFDGSGGTVYMELRSLRSDDTATYYCVTHKLYDGEDASDLTWRLDPWGQGTRVTVSS
VL: GVSLTQSPASLCASVGDRVTFTCQASQDITNAINWYQLRPGKTPKLMIHDGSTLRRGVPSRFAGSGFGTRFTFTIDNLQPEDLATYFCQHYEFFPPAGTQVDFN
geometric mean IC50, TZM-bl cell pseudovirus neutralization assay [1]: < 0.05 µg/mL | neutralizing activity, TZM-bl cell pseudovirus neutralization assay (breadth) [1]: 100%

B2: 01_B01 (antibody, V domains shown)
VH: HVQLWQSGAEVKKPGASVKISCAAWGFGTTSGYSFRDYRIHWVRQVPGQGFQWMGHIQPRYGAVNYAHQFQGRITMTREVSFDASGGTAYMELRSLRSDDTATYYCVTHKLYDGEDASDLAWRLDPWGQGTRVTVSS
VL: GVHLTQSPASLSASVGDRVTFTCQASQDITNAINWYQLRPGKTPKLMIHDGSTLRRGVPSRFAGGGFGTKFTFTIDNLQPEDLATYFCQHYEFFPPAGTQVELN
geometric mean IC50, TZM-bl cell pseudovirus neutralization assay [1]: < 0.05 µg/mL | neutralizing activity, TZM-bl cell pseudovirus neutralization assay (breadth) [1]: 100%

B3: 01_D03 (antibody, V domains shown)
VH: HVQLWQSGAEVKKPGASVKISCSAWGFGTTSGYSFRDYRVHWVRHIAGQGFQWMGHMQPRYGAVNYARQFQGRITMTREVSFDASGGTAYMELRSLRSDDTAVYYCVTHKLYDGEDASDLTWRLDPWGQGTRVIVSS
VL: GVHLTQSPASLSASVGDRVTFTCQASQDITNAINWYQLRPGKTPKLMIHDGSTLRRGVPSRFAGSGFGTKFTFTIDNLQPEDLATYFCQHYEFFPPVGTQVELN
geometric mean IC50, TZM-bl cell pseudovirus neutralization assay [1]: 0.021 µg/mL | neutralizing activity, TZM-bl cell pseudovirus neutralization assay (breadth) [1]: 100% | neutralizing activity, TZM-bl cell pseudovirus neutralization assay (breadth) [2]: 88%

B4: 04_A06 (antibody, V domains shown)
VH: SVRLDQSGTAVKKPGASVRVSCRAPDSFTVYRPRLSAYFIGEFNIHWLRQAPGQGLEWLGFVNIFRGAVKYSSRFQGRITITRDTSSETSYLDLGALKADDTATYYCAWDKNVDDNPWRLDSWGQGTLVIVSS
VL: YIQVTQSPSSLSASIGDTITVACEVSQDVGWAVNWYHQRPGRPPYNLIYTAHNLAPGVASRFRGSRVGTYFTLTINNLLPEDVGTYYCQVFDSFAPGGTRVDLR
geometric mean IC50, TZM-bl cell pseudovirus neutralization assay [1]: 0.038 µg/mL | neutralizing activity, TZM-bl cell pseudovirus neutralization assay (breadth) [1]: 100% | geometric mean IC50, TZM-bl cell pseudovirus neutralization assay [3]: 0.036 µg/mL | neutralizing activity, TZM-bl cell pseudovirus neutralization assay (breadth) [3]: 99% | geometric mean IC50, TZM-bl cell pseudovirus neutralization assay [4]: 0.057 µg/mL | neutralizing activity, TZM-bl cell pseudovirus neutralization assay (breadth) [4]: 99% | IC50, TZM-bl cell pseudovirus neutralization assay [5]: 0.153 µg/mL | neutralizing activity, TZM-bl cell pseudovirus neutralization assay (breadth) [5]: 86% | neutralizing activity, TZM-bl cell pseudovirus neutralization assay (breadth) [6]: 100% | GeoMean IC50, TZM-bl cell pseudovirus neutralization assay [7]: 0.084 µg/mL | neutralizing activity, TZM-bl cell pseudovirus neutralization assay (breadth) [7]: < 98%

B5: 04_B09 (antibody, V domains shown)
VH: SVRLDQSGTAVKKPGASVRVSCRAPDSFTVYRPRLSAYFIGEFNIHWLRQAPGQGLEWLGFVNIFRGAVKYSSAFRGRITITRDTSLETSYLDLGALKPDDTATYFCAWDKNVDDNPWRLDSWGQGTLVVVSS
VL: YIQVTQSPSSLSASVGDTITVACQVSQDVGWAVNWYHQRPGRPPYNLIYTTSNLAPGVASRFRGTRVATYFTLTINNLLPEDVGTYYCQVFESFAPGGTRVDLR
geometric mean IC50, TZM-bl cell pseudovirus neutralization assay [1]: < 0.05 µg/mL | neutralizing activity, TZM-bl cell pseudovirus neutralization assay (breadth) [1]: 100%
